Sequences and labels used below:
B1: L13 (peptide)
peptide: GHYFVTTFY
notes: source: synthetic peptide (Apeptide, Shanghai; purity >95%)
B2: L15 (peptide)
peptide: TAKGHYFVTTFYRNG
notes: as for B1
B3: L16 (peptide)
peptide: NYKIEMKNNKIILLD
notes: as for B1
B4: L21 (peptide)
peptide: ENFKFFGQYANLKELRK
notes: as for B1
B5: L10 (peptide)
peptide: NTRTAKGHYFVTTFYRNG
notes: as for B1
B6: L26 (peptide)
peptide: DEIVKELRSRYNISTEKSPILKMHIDGDLKGSSVGYRKLEIDFSKRENSKLSVIEFLSYKPAKK
notes: as for B1

The values below come from paper PMC10117725, “From an Hsp90 - binding protein to a peptide drug” (microLife, 2022).

For the assay, the target named is T1, recombinant Hsp90α (human, UniProt P07900 1-732).
T1 construct: source: bought: Abcam (recombinant)
Kind of assay: far-Western, overlay or dot blot. The note with it: both partners purified.
Turning to B1, the binding result is “binds”.

In the case of B2, the binding result is recorded as “binds”.

Regarding B3, the binding result is listed as “binds”.

In the case of B4, the binding result was “binds”.

Take B5: the binding result is given as “binds”.

B6: the binding result is recorded as “binds”.
